Data from PMC11041685, “Emergence of fractal geometries in the evolution of a metabolic enzyme” (Nature, 2024).
Where “and” joins values, the source holds several entries; their conditions need not be identical. Equal entries are not always repeated.

How the values were obtained:
[1] = target: D147A SeCS (Synechococcus elongatus PCC 7942); assay: native MS; 200 mM ammonium acetate, positive-ion nanoelectrospray; D147A at 20 µM, D147A + L18Q at 35 µM
[2] = target: D147A SeCS (Synechococcus elongatus PCC 7942); assay: mass photometry; 50 nM protein unless stated otherwise, in PBS or 20 mM Tris, 200 mM NaCl pH 7.5; masses of the complexes in solution, fraction of CS subunits in each oligomeric state
[3] = target: D147A SeCS (Synechococcus elongatus PCC 7942); assay: native MS; 200 mM ammonium acetate, positive-ion nanoelectrospray; D147A at 20 µM, D147A + L18Q at 35 µM; remark: listed apart in the source
[4] = target: H369R SeCS (Synechococcus elongatus PCC 7942); assay: mass photometry; 50 nM protein unless stated otherwise, in PBS or 20 mM Tris, 200 mM NaCl pH 7.5; masses of the complexes in solution, fraction of CS subunits in each oligomeric state
[5] = target: H369R SeCS (Synechococcus elongatus PCC 7942); assay: cryo-EM structure; 22.5 µM protein on Quantifoil 2/1 grids
[6] = target: H369R SeCS (Synechococcus elongatus PCC 7942); assay: as above; remark: listed apart in the source
[7] = target: H369R SeCS (Synechococcus elongatus PCC 7942); assay: negative-stain electron microscopy; 450 nM protein on carbon-coated copper grids, 2% uranyl acetate; 2D class averages and manual particle counts
[8] = target: SeCS D147A + L18Q (Synechococcus elongatus PCC 7942); assay: mass photometry; 50 nM protein unless stated otherwise, in PBS or 20 mM Tris, 200 mM NaCl pH 7.5; masses of the complexes in solution, fraction of CS subunits in each oligomeric state
[9] = target: SeCS D147A + L18Q (Synechococcus elongatus PCC 7942); assay: native MS; 200 mM ammonium acetate, positive-ion nanoelectrospray; D147A at 20 µM, D147A + L18Q at 35 µM
[10] = target: SeCS L18Q (Synechococcus elongatus PCC 7942); assay: mass photometry; 50 nM protein unless stated otherwise, in PBS or 20 mM Tris, 200 mM NaCl pH 7.5; masses of the complexes in solution, fraction of CS subunits in each oligomeric state
[11] = target: SeCS L18Q (Synechococcus elongatus PCC 7942); assay: SAXS; dilution series from the highest concentration, 25 mM Tris-HCl pH 7.5, 200 mM NaCl, 20 °C; Rg by Guinier approximation against Rg of models of the 6mer, 18mer and 54mer
[12] = target: SeCS L18Q (Synechococcus elongatus PCC 7942); assay: negative-stain electron microscopy; 450 nM protein on carbon-coated copper grids, 2% uranyl acetate; 2D class averages and manual particle counts
[13] = target: citrate synthase from Cyanobium sp. PCC7001 (Cyanobium sp. PCC7001); assay: mass photometry; 50 nM protein unless stated otherwise, in PBS or 20 mM Tris, 200 mM NaCl pH 7.5; masses of the complexes in solution, fraction of CS subunits in each oligomeric state
[14] = target: citrate synthase from Planktothrix mougeotii (Planktothrix mougeotii); assay: as above
[15] = target: citrate synthase from Synechococcus elongatus PCC 7942 (Synechococcus elongatus PCC 7942); assay: mass photometry; with acetyl-CoA, oxaloacetate or citrate: protein incubated 10 min with the substrate, same substrate concentration in the buffer; cys4 after oxidation
[16] = target: citrate synthase from Synechococcus elongatus PCC 7942 (Synechococcus elongatus PCC 7942); assay: mass photometry; 50 nM protein unless stated otherwise, in PBS or 20 mM Tris, 200 mM NaCl pH 7.5; masses of the complexes in solution, fraction of CS subunits in each oligomeric state
[17] = target: citrate synthase from Synechococcus elongatus PCC 7942 (Synechococcus elongatus PCC 7942); assay: cryo-EM structure; 22.5 µM protein on Quantifoil 2/1 grids
[18] = target: citrate synthase from Synechococcus elongatus PCC 7942 (Synechococcus elongatus PCC 7942); assay: SAXS; dilution series from the highest concentration, 25 mM Tris-HCl pH 7.5, 200 mM NaCl, 20 °C; Rg by Guinier approximation against Rg of models of the 6mer, 18mer and 54mer
[19] = target: citrate synthase from Synechococcus elongatus PCC 7942 (Synechococcus elongatus PCC 7942); assay: crystal structure; 250 µM protein incubated with 5 mM acetyl-CoA; 0.1 M citrate pH 5.5, 2.0 M ammonium sulfate, 20 °C; citrate-bound
[20] = target: citrate synthase from Synechococcus elongatus PCC 7942 (Synechococcus elongatus PCC 7942); assay: mass photometry; pH titration, 20 mM Tris, 200 mM NaCl pH 7–9.5, 50 nM protein
[21] = target: citrate synthase from Synechococcus elongatus PCC 7942 (Synechococcus elongatus PCC 7942); assay: negative-stain electron microscopy; 450 nM protein on carbon-coated copper grids, 2% uranyl acetate; 2D class averages and manual particle counts
[22] = target: Δ2–6 SeCS (Synechococcus elongatus PCC 7942); assay: mass photometry; 50 nM protein unless stated otherwise, in PBS or 20 mM Tris, 200 mM NaCl pH 7.5; masses of the complexes in solution, fraction of CS subunits in each oligomeric state
[23] = target: Δ2–6 SeCS (Synechococcus elongatus PCC 7942); assay: cryo-EM structure; 22.5 µM protein on Quantifoil 2/1 grids
purified protein [24] = substrate: O=C(O)CC(=O)C(=O)O; assay: purified protein; assay type: biochemical, Synechococcus elongatus; details: 0.5 mM acetyl-CoA, 50 mM Tris pH 7.5, 10 mM KCl, 25 nM protein, 25 °C
purified protein [25] = substrate: CC(=O)SCCNC(=O)CCNC(=O)[C@H](O)C(C)(C)COP(=O)(O)OP(=O)(O)OC[C@H]1O[C@@H](n2cnc3c(N)ncnc32)[C@H](O)[C@@H]1OP(=O)(O)O; assay: purified protein; assay type: biochemical, Synechococcus elongatus; details: 1 mM oxaloacetate, 50 mM Tris pH 7.5, 10 mM KCl, 25 nM protein, 25 °C

With D147A SeCS (enzyme) the stoichiometry N [1] was 4 subunits and 6 subunits, the stoichiometry N [2] was 2 subunits and the stoichiometry N [3] was over 8 subunits.

H369R SeCS (enzyme) gave a stoichiometry N [4] of 18 subunits, a stoichiometry N [5] of 54 subunits and a stoichiometry N [6] of 18 subunits. For the same molecule, the stoichiometry N [7] was 18 subunits and 54 subunits.

SeCS D147A + L18Q (enzyme) was tested, and the stoichiometry N [8] was 2 subunits and the stoichiometry N [9] was 2 subunits and 6 subunits.

Work on SeCS L18Q (enzyme) yielded a stoichiometry N [10] of 6 subunits, a stoichiometry N [11] of 6 subunits and a stoichiometry N [12] of 6 subunits.

For “citrate synthase from Cyanobium sp. PCC7001 (enzyme)”, the stoichiometry N [13] was 2 subunits.

For “citrate synthase from Planktothrix mougeotii (enzyme)”, the stoichiometry N [14] was 18 subunits.

Work on “citrate synthase from Synechococcus elongatus PCC 7942 (enzyme)” yielded a stoichiometry N [15] of 6 subunits, a stoichiometry N [16] of 18 subunits and a stoichiometry N [17] of 18 subunits. It also gave a stoichiometry N [18] of over 54 subunits, a stoichiometry N [19] of 6 subunits and a stoichiometry N [20] of 6 subunits. For the same molecule, the stoichiometry N [21] was 18 subunits and 36 subunits and 54 subunits.

Δ2–6 SeCS (enzyme) was tested, and the stoichiometry N [22] was 6 subunits and the stoichiometry N [23] was 6 subunits.

B1: SeCS (CS of S. elongatus PCC 7942) (Synechococcus elongatus PCC 7942 = FACHB-805) (protein)
chain: MTAVSEFRPGLEGVPATLSSISFVDGQRGVLEYRGISIEQLAQQSSFLETAYLLIWGHLPTQQELTEFEHEIRYHRRIKFRIRDMMKCFPDSGHPMDALQASAAALGLFYSRRALDDPEYIRAAVVRLLAKIPTMVAAFQLIRKGNDPIQPRDELDYAANFLYMLTEREPDPVAARIFDICLTLHAEHTINASTFSAMVTASTLTDPYAVVASAVGTLAGPLHGGANEEVLDMLEAIGSVENVEPYLDHCIATKTRIMGFGHRVYKVKDPRAVILQNLAEQLFDIFGHDPYYEIAVAVEKAAAERLSHKGIYPNVDFYSGLVYRKLGIPSDLFTPVFAIARVAGWLAHWKEQLNENRIFRPTQIYTGSHNLDYTPIADRDLAIESD
notes: full length, C-terminal His tag (LE-HHHHHH) kept, E. coli BL21 (DE3); 18mer, active as homohexamer
B1 showed a Km (purified protein [24]) of 65.6 ± 10.6 µM, a kcat (purified protein [24]) of 19.5 ± 1.7 s⁻¹ and a Km (purified protein [25]) of 91.8 ± 9.2 µM. The kcat (purified protein [25]) was 24.2 ± 1.3 s⁻¹.
